In paper PMC9535758 (EMBO Reports, 2022):

Biological target: T1, Human recombinant His-tagged PALB2 (human, UniProt Q86YC2 1-1186)
T1 sequence: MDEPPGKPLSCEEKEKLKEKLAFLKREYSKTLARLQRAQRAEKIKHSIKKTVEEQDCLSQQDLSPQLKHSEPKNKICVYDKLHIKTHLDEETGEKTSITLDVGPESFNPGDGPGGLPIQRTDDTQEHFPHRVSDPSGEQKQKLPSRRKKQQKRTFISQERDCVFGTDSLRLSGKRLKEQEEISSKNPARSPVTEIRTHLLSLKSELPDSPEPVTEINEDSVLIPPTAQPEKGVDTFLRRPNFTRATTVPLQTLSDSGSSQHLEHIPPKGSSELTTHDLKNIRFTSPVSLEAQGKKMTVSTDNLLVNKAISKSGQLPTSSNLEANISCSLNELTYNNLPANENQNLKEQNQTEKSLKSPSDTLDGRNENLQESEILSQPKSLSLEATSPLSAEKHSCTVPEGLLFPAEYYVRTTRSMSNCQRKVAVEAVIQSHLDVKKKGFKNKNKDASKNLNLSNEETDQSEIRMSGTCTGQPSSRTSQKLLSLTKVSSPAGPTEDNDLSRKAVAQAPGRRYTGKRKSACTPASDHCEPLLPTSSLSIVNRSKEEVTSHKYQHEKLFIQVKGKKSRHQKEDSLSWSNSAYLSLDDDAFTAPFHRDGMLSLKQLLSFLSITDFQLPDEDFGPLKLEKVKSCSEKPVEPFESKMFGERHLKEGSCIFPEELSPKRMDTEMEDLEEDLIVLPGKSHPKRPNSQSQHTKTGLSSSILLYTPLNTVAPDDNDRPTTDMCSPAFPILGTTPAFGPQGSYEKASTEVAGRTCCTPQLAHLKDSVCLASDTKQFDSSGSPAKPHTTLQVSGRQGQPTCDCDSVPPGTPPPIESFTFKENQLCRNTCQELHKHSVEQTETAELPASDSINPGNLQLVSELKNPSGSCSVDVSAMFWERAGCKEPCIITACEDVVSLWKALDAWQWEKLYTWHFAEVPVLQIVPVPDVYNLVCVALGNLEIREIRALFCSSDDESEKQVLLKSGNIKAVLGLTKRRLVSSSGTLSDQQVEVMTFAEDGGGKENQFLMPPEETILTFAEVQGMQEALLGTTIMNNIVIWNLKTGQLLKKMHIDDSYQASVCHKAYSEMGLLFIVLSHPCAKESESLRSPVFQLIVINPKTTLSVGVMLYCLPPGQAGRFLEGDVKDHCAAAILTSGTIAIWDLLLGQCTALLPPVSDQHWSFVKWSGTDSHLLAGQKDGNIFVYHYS
Test: pull-down

binding result: binds
B1: BRCA2_(1-40)HA-His (domain or fragment)
chain: MPIGSKERPTFFEIFKTRCNKADLGPISLNWFEELSSEAP
